Assay results published in the supplement of paper PMC10567573.

B1: SMG5 (parent)
chain: TNPDLIIVCAQSSQSLWNRLSVLL
B2: TFE3 (parent)
chain: ELPNIKREISETEAKALLKERQKK

Variants of: B1
Experiment: protein stability index of a GFP-peptide fusion (GPS, HEK-293T) (PSI 1-6); higher = more stable
Conditions: c terminus: a fixed tail appended
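Further: lentivirally expressed fusions sorted by FACS into six bins by GFP to DsRed ratio, PSI derived from sequencing read proportions per bin multiplied by bin number.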

Protein stability index, by site and new letter:
L16: V 1.51 | S 2.53 | N 2.81 | Y 2.81 | H 3.7 | Q 2.55 | P 3.37
S13: W 1.55 | V 1.88 | R 1.36 | I 1.41 | K 2.48 | L 2.97 | H 1.53 | C 2.21 | D 1.59 | Q 1.83 | N 2.7
L20: D 1.83 | Q 2.08 | H 1.7 | A 2.15 | M 2.24 | W 3.72 | S 2.19 | F 1.81
D4: Q 2.18 | C 1.05 | M 4.85 | P 1.95 | F 1.71 | H 3.73 | S 1.76
C9: P 1.92 | R 2.12 | M 1.76 | S 3.03 | T 1.95 | V 2.69 | H 1.64 | Y 1.56 | L 3.72
V22: I 4.58 | G 1.81 | R 2.23 | S 2.36 | P 2.62 | H 1.84 | T 2.99
W17: L 3.96 | D 1.77 | V 2.79 | S 3.57 | A 4.21 | Y 2.88 | C 4.36
N18: P 3.09 | V 1.91 | G 2.69 | I 2.43 | A 3.11
I6: K 2.36 | T 1.79 | C 1.26 | S 2.87 | L 2.64 | F 2.5 | E 2.34 | M 1.93 | R 2.2 | P 2.57 | Q 3.05 | W 2.5
Q14: K 3.23 | G 2.23 | S 2.68 | A 3.98 | L 1.6 | D 3.38
A10: H 2.68 | W 2.35
V8: A 1.43 | G 2.27 | L 3.74 | C 1.36
R19: V 1.86 | G 3.61 | W 2.23 | L 1.57 | S 2.06 | Y 1.41 | N 5.11
L24: Y 1.85 | M 3.19 | E 3.27 | N 2.45 | D 2.8 | V 3.05 | H 2.54
S12: G 2.1 | L 3.9 | N 1.99 | Y 4.01 | F 3.37 | R 3.06 | H 3.49
I7: E 2.25 | T 1.66 | C 2.48 | K 1.71 | M 1.67
Q11: R 2.19 | K 2.89 | C 3.76 | M 2.81 | Y 4.08 | E 1.32
S15: N 3.11 | Y 2.49 | H 2.18 | G 2.9 | C 3.21
L5: Y 1.47 | C 3.93 | D 1.76 | K 2.82 | G 1.54
N2: E 2.26 | D 3.01 | L 2.99 | K 2.66
P3: N 2.52 | Q 1.71 | S 2.5 | R 3.61 | E 2.57 | M 2.64 | W 3.4
S21: F 3.03 | P 2.6 | R 2 | M 1.58 | I 3.08
L23: V 2.8 | S 2.68 | C 3.62 | F 2.33
T1: I 3.34 | H 2.44 | Y 1.66 | R 1.37

Variants of: B2
Experiment: as above
Conditions: c terminus: a fixed tail appended

Protein stability index, by site and new letter:
N4: L 3.34 | V 3.86 | C 2.32 | F 3.14 | Y 3.29 | K 2.78 | M 2.83 | E 3.9 | Q 2.02 | I 3.85
L2: E 5.33 | Q 3.88 | K 5.08 | Y 4.18 | P 5.74 | A 4.75
K6: E 4.11 | V 2.24 | Y 2.65 | A 2.95 | D 4.36 | N 2.81 | S 2.5 | G 2.81 | M 2.75
E1: T 3.6 | D 2.65 | M 2.39 | V 3.57 | K 3.13 | Q 2.99 | H 2.66 | R 3.51
K19: M 2.89 | S 2.53 | G 1.71 | R 2.32 | D 2.52 | C 2.07
E13: D 4.12 | V 3.45 | K 3.83 | Y 3.32 | N 3.83 | A 4.83 | L 3.06 | M 3.71
E8: N 3.46 | G 3.09 | V 3.43 | D 2.69 | M 3.32 | Q 3.34
Q22: V 2.83 | H 2.73 | N 2.5 | F 2.34
L17: G 2.76 | W 2.7 | V 3.14 | P 3.56 | T 2.68 | K 3.17 | M 2.71 | I 2.98 | Y 2.48 | Q 2.56 | E 2.25
I5: Y 4.3 | K 4.58 | V 3.94 | R 4.4 | L 3.34 | G 3.46
K23: R 2.78 | T 2.86 | W 2.36 | E 2.64 | H 2.44 | N 2.85 | F 2.36 | D 2.56 | S 2.8 | L 2.91 | M 2.4 | Y 2.1
A16: T 2.96 | C 2.2 | R 3.68 | M 2.63 | W 2.57 | Y 2.37 | K 3.91 | L 2.34 | N 4.09 | V 2.79 | Q 4.6 | H 4.11
K24: W 2.44 | A 2.46 | F 2.03 | Y 2.69 | P 2.17 | T 2.79 | Q 2.84
E11: C 2.87 | I 3.05 | K 3.48 | N 2.99 | R 2.5 | F 3.43 | L 2.79
S10: H 2.82 | C 3.2 | W 2.9 | K 3 | Q 2.68 | R 2.91
E20: A 2.99 | F 2.03 | G 2.78 | H 2.9 | N 2.9 | T 3.07 | K 2.83 | Q 2.77 | I 2.29
R21: M 2.25 | E 2.74 | V 2.53 | H 2.63 | N 2.91 | Q 2.73 | F 2.38 | D 2.88 | W 2.15
A14: K 2.75 | Q 2.39 | Y 2.49 | G 3 | D 2.17 | E 3.05 | P 3.06
T12: R 4.08 | Y 4.15 | G 4.73 | L 4 | F 3.78
P3: E 3.17 | F 2.84 | C 2.43 | I 1.34 | N 4.13 | D 2.89 | V 2.32
K15: T 2.3 | R 3.15 | Y 2.31 | W 2.42 | D 1.98 | S 2.75
L18: Q 2.96 | T 2.65 | S 2.77 | C 2.6 | K 3.19 | V 2.2 | D 2.07 | H 2.56 | E 2.5
I9: M 2.25 | V 3.64 | S 4.68 | L 2.66 | C 3.74
R7: P 4.86 | C 2.97 | H 3.27 | Y 2.81 | S 2.49 | K 2.44 | G 2.2 | W 2.84
